Assay [1] deals with biotinylated peptide X-…(biotin), X = F. In words: phage ELISA, biotinylated peptide on neutravidin. (An ELISA detects its analyte on a solid surface through an enzyme-linked reagent.)
The target in assay [2] is biotinylated peptide X-…(biotin), X = Y. Kind of assay: phage ELISA, biotinylated peptide on neutravidin.
The target of assay [3] is biotinylated peptide X-…(biotin), X = F. Kind of assay: phage ELISA, biotinylated peptide on neutravidin; phage 10×.
Assay [4] deals with biotinylated peptide X-…(biotin), X = Y. The description is as above.

For “Phage displayed wild-type E. coli ClpS (truncated wildtype ClpS polypeptide, FLAG-tagged, fused to phage coat protein p3) (from UniProt A7ZJU9 23-106)”, the phage ELISA signal (A450) in assay [1] was 1.81; in assay [2] it was 1.08; in assay [3] it was 1.81; in assay [4] it was 1.08.
